# Reference: US20090208447A1 (MEDIGENE, published 2009)
# Target: HLA-A*0201 loaded with the Carcinoembryonic antigen (CEA)-derived … peptide (biotinylated on the C-terminal biotinylation tag)
# Experiment: SPR (Biacore), Example 4
Kd,koff,Binder
≤ 1000 nM,≤ 2 s⁻¹,SEQ ID NO 26 (receptor) MGHLPKPTLWAEPGSVITQGSPVTLRCQGGQETQEYRLYREKKTAPWITRIPQELVKKGQFPIPSITWEHAGRYRCMQYTLTAGRSESSDPLELVVTGVYIKPTLSAQPSPVVNSGGNVTLQCDSQVAFDGFILCKEGEDEHPQCLNSQPHARGSSRAIFSVGPVSPSRRWWYRCYAYDSNSPYEWSLPSDLLELLVL
≤ 1000 nM,≤ 2 s⁻¹,SEQ ID NO 35 (receptor) MGHLPKPTLWAEPGSVITQGSPVTLRCQGGQETQEYRLYREKKTAPWITRIPQELVKKGQFPIPSITWEHAGRYRCYYGSDTAGRSESSDPLELVVTGIYRQPTLSAQPSPVVNSGGNVTLQCDSQVAFDGFILCKEGEDEHPQCLNSQPHARGSSRAIFSVGPVSPSRRWWYRCYAYDSNSPYEWSLPSDLLELLVL
≤ 1000 nM,≤ 2 s⁻¹,SEQ ID NO 42 (receptor) MGHLPKPTLWAEPGSVITLGQPVTLRCQGGQETQEYRLYREKKTAPWITRIPQELVKKGQFPIPSITWEHAGRYRCYYGSDTAGRSESSDPLELVVTGVYIKPTLSAQPSPVVNSGGNVTLQCDSQVAFDGFILCKEGEDEHPQCLNSQPHARGSSRAIFSVGPVSPGRRWWYRCYAYDSNSPYEWSLPSDLLELLVL
≤ 1000 nM,≤ 2 s⁻¹,SEQ ID NO 34 (receptor) MGHLPKPTLWAEPGSVITMDQPVTLRCQGGQETQEYRLYREKKTAPWITRIPQELVKKGQFPIPSITWEHAGRYRCMQYTLTAGRSESSDPLELVVTGVYIKPTLSAQPSPVVNSGGNVTLQCDSQVAFDGFILCKEGEDEHPQCLNSQPHARGSSRAIFSVGPVSPSRRWWYRCYAYDSNSPYEWSLPSDLLELLVL
≤ 1000 nM,≤ 2 s⁻¹,SEQ ID NO 40 (receptor) MGHLPKPTLWAEPGSVITQGRPVTLRCQGGQETQEYRLYREKKTAPWITRIPQELVKKGQFPIPSITWEHAGRYRCYYGSDTAGRSESSDPLELVVTGVYIKPTLSAQPSPVVNSGGNVTLQCDSQVAFDGFILCKEGEDEHPQCLNSQPHARGSSRAIFSVGPVSPSRRWWYRCYAYDSNSPYEWSLPSDLLELLVL
≤ 1000 nM,≤ 2 s⁻¹,SEQ ID NO 36 (receptor) MGHLPKPTLWAEPGSVITQGSPVTLRCQGGQETQEYRLYREKKTAPWITRIPQELVKKGQFPIPSITWEHAGRYRCYYGSDTAGRSESSDPLELVVTGIYLAPTLSAQPSPVVNSGGNVTLQCDSQVAFDGFILCKEGEDEHPQCLNSQPHARGSSRAIFSVGPVSPSRRWWYRCYAYDSNSPYEWSLPSDLLELLVL
≤ 1000 nM,≤ 2 s⁻¹,SEQ ID NO 41 (receptor) MGHLPKPTLWAEPGSVITVGQPVTLRCQGGQETQEYRLYREKKTAPWITRIPQELVKKGQFPIPSITWEHAGRYRCYYGSDTAGRSESSDPLELVVTGVYIKPTLSAQPSPVVNSGGNVTLQCDSQVAFDGFILCKEGEDEHPQCLNSQPHARGSSRAIFSVGPVSPGRRWWYRCYAYDSNSPYEWSLPSDLLELLVL
≤ 1000 nM,≤ 2 s⁻¹,SEQ ID NO 31 (receptor) MGHLPKPTLWAEPGSVITMDQPVTLRCQGGQETQEYRLYREKKTAPWITRIPQELVKKGQFPIPSITWEHAGRYRCYYGSQGGLRSESSDPLELVVTGVYIKPTLSAQPSPVVNSGGNVTLQCDSQVAFDGFILCKEGEDEHPQCLNSQPHARGSSRAIFSVGPVSPGRRWWYRCYAYDSNSPYEWSLPSDLLELLVL
≤ 1000 nM,≤ 2 s⁻¹,SEQ ID NO 48 (receptor) MGHLPKPTLWAEPGSVITQGSPVTLRCQGGQETQEYRLYREKKTAPWITRIPQELVKKGQFPIPSITWEHAGRYRCQGVSQTAGRSESSDPLELVVTGVYIKPTLSAQPSPVVNSGGNVTLQCDSQVAFDGFILCKEGEDEHPQCLNSQPHARGSSRAIFSVGPVSPSRRWWYRCYAYDSNSPYEWSLPSDLLELLVL
≤ 1000 nM,≤ 2 s⁻¹,SEQ ID NO 47 (receptor) MGHLPKPTLWAEPGSVITQGSPVTLRCQGGQETQEYRLYREKKTAPWITRIPQELVKKGQFPIPSITWEHAGRYRCYYGGQEGARSESSDPLELVVTGVYIKPTLSAQPSPVVNSGGNVTLQCDSQVAFDGFILCKEGEDEHPQCLNSQPHARGSSRAIFSVGPVSPSRRWWYRCYAYDSNSPYEWSLPSDLLELLVL
≤ 1000 nM,≤ 2 s⁻¹,SEQ ID NO 45 (receptor) MGHLPKPTLWAEPGSVITQGSPVTLRCQGGQETQEYRLYREKKTAPWITRIPQELVKKGQFPIPSITWEHAGRYRCVGWAVTAGRSESSDPLELVVTGVYIKPTLSAQPSPVVNSGGNVTLQCDSQVAFDGFILCKEGEDEHPQCLNSQPHARGSSRAIFSVGPVSPSRRWWYRCYAYDSNSPYEWSLPSDLLELLVL
≤ 1000 nM,≤ 2 s⁻¹,SEQ ID NO 30 (receptor) MGHLPKPTLWAEPGSVITQGSPVTLRCQGGQETQEYRLYREKKTAPWITRIPQELVKKGQFPIPSITWEHAGRYRCMQYTLTAGRSESSDPLELVVTGAYIKPTLSAQPSPVVNSGGNVTLQCDSQVAFDGFILCKEGEDEHPQCLNSQPHARGSSRAIFSVGPVSPSRRWWYRCYAYDSNSPYEWSLPSDLLELLVL
≤ 1000 nM,≤ 2 s⁻¹,SEQ ID NO 27 (receptor) MGHLPKPTLWAEPGSVITQGSPVTLRCQGGQETQEYRLYREKKTAPWITRIPQELVKKGQFPIPSITWEHAGRYRCYYGSDTSQWSASSDPLELVVTGVYIKPTLSAQPSPVVNSGGNVTLQCDSQVAFDGFILCKEGEDEHPQCLNSQPHARGSSRAIFSVGPVSPSRRWWYRCYAYDSNSPYEWSLPSDLLELLVL
≤ 1000 nM,≤ 2 s⁻¹,SEQ ID NO 28 (receptor) MGHLPKPTLWAEPGSVITQGSPVTLRCQGGQETQEYRLYREKKTAPWITRIPQELVKKGQFPIPSITWEHAGRYRCYYGSQGGLRSESSDPLELVVTGAYIKPTLSAQPSPVVNSGGNVTLQCDSQVAFDGFILCKEGEDEHPQCLNSQPHARGSSRAIFSVGPVSPSRRWWYRCYAYDSNSPYEWSLPSDLLELLVL
≤ 1000 nM,≤ 2 s⁻¹,SEQ ID NO 44 (receptor) MGHLPKPTLWAEPGSVITQGSPVTLRCQGGQETQEYRLYREKKTAPWITRIPQELVKKGQFPIPSVTWEHAGRYRCYYGSDTAGRSESSDPLELVVTGVYIKPTLSAQPSPVVNSGGNVTLQCDSQVAFDGFILCKEGEDEHPQCLNSQPHARGSSRAIFSVGPVSPSRRWWYRCYAYDSNSPYEWSLPSDLLELLVL
≤ 1000 nM,≤ 2 s⁻¹,SEQ ID NO 29 (receptor) MGHLPKPTLWAEPGSVITQGSPVTLRCQGGQETQEYRLYREKKTAPWITRIPQELVKKGQFPIPSITWEHAGRYRCYYGTQTAGRSESSDPLELVVTGAYIKPTLSAQPSPVVNSGGNVTLQCDSQVAFDGFILCKEGEDEHPQCLNSQPHARGSSRAIFSVGPVSPSRRWWYRCYAYDSNSPYEWSLPSDLLELLVL
≤ 1000 nM,≤ 2 s⁻¹,SEQ ID NO 32 (receptor) MGHLPKPTLWAEPGSVITMDQPVTLRCQGGQETQEYRLYREKKTAPWITRIPQELVKKGQFPIPSITWEHAGRYRCYYGTQTAGRSESSDPLELVVTGVYIKPTLSAQPSPVVNSGGNVTLQCDSQVAFDGFILCKEGEDEHPQCLNSQPHARGSSRAIFSVGPVSPGRRWWYRCYAYDSNSPYEWSLPSDLLELLVL
≤ 1000 nM,≤ 2 s⁻¹,SEQ ID NO 39 (receptor) MGHLPKPTLWAEPGSVITQGAPVTLRCQGGQETQEYRLYREKKTAPWITRIPQELVKKGQFPIPSITWEHAGRYRCYYGSDTAGRSESSDPLELVVTGVYIKPTLSAQPSPVVNSGGNVTLQCDSQVAFDGFILCKEGEDEHPQCLNSQPHARGSSRAIFSVGPVSPGRRWWYRCYAYDSNSPYEWSLPSDLLELLVL
≤ 1000 nM,≤ 2 s⁻¹,SEQ ID NO 33 (receptor) MGHLPKPTLWAEPGSVITMDQPVTLRCQGGQETQEYRLYREKKTAPWITRIPQELVKKGQFPIPSITWEHAGRYRCVIQRGTAGRSESSDPLELVVTGVYIKPTLSAQPSPVVNSGGNVTLQCDSQVAFDGFILCKEGEDEHPQCLNSQPHARGSSRAIFSVGPVSPSRRWWYRCYAYDSNSPYEWSLPSDLLELLVL
≤ 1000 nM,≤ 2 s⁻¹,SEQ ID NO 49 (receptor) MGHLPKPTLWAEPGSVITQGSPVTLRCQGGQETQEYRLYREKKTAPQITRIPQELVKKGQFPIPSITWEHAGRYRCYYGSDTAGRSESSDPLELVVTGVYVAPTLSAQPSPVVNSGGNVTLQCDSQVAFDGFILCKEGEDEHPQCLNSQPHARGSSRAIFSVGPVSPGRRWWYRCYAYDSNSPYEWSLPSDLLELLVL
≤ 1000 nM,≤ 2 s⁻¹,SEQ ID NO 38 (receptor) MGHLPKPTLWAEPGSVITQGSPVTLRCQGGQETQEYRLYREKKTAPWITRIPQELVKKGQFPIPSITWEHAGRYRCYYGSDTAGRSESSDPLELVVTGIYQAPTLSAQPSPVVNSGGNVTLQCDSQVAFDGFILCKEGEDEHPQCLNSQPHARGSSRAIFSVGPVSPSRRWWYRCYAYDSNSPYEWSLPSDLLELLVL
≤ 1000 nM,≤ 2 s⁻¹,SEQ ID NO 43 (receptor) MGHLPKPTLWAEPGSVITQGSPVTLRCQGGQETQEYRLYREKKTAPWITRIPQELVKKGQFPIPSITWEHAGRYRCYYGSDTAGRSESSDPLELVVTGVYIKPTLSAQPSPVVNSGGNVTLQCDSQVAFDGFILCKEGEDEHPQCLNSQPHARGSSRAIFSVGPVSPGRRWWYRCYAYDSNSPYEWSLPSDLLELLVL
≤ 1000 nM,≤ 2 s⁻¹,SEQ ID NO 37 (receptor) MGHLPKPTLWAEPGSVITQGSPVTLRCQGGQETQEYRLYREKKTAPWITRIPQELVKKGQFPIPSITWEHAGRYRCYYGSDTAGRSESSDPLELVVTGIYKAPTLSAQPSPVVNSGGNVTLQCDSQVAFDGFILCKEGEDEHPQCLNSQPHARGSSRAIFSVGPVSPSRRWWYRCYAYDSNSPYEWSLPSDLLELLVL
